The supplement of paper PMC9112550, “Optimization of the antimicrobial peptide Bac7 by deep mutational scanning” (BMC Biology, 2022)

Tested on: Escherichia coli TOP10
Assay: shrunken log2 fold change of peptide-encoding DNA abundance (4.5 h post-induction vs induction); higher = less antimicrobial activity (less host growth inhibition)
Conditions: time post-induction: 4.5 h; library: site-saturation at positions 5, 18, 19, 20
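Note: peptides expressed intracellularly from a pBAD plasmid library in pooled LB shake-flask culture, induced with 0.3% L-arabinose, DNA abundance read by NGS, three biological replicates, DESeq2 with apeglm shrinkage.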

In order of falling “shrunken log2 fold change” value:
1. RRIRDRPPRLPRPRPRPMFCPRP  2.64
2. RRIRGRPPRLPRPRPRPPPNPRP  1.27
3. RRIRARPPRLPRPRPRPPREPRP  1.01
4. RRIRKRPPRLPRPRPRPARRPRP  0.888
5. RRIRMRPPRLPRPRPRPACCPRP  0.646
6. RRIRARPPRLPRPRPRPPDNPRP  0.576
7. RRIRGRPPRLPRPRPRPATDPRP  0.531
8. RRIRMRPPRLPRPRPRPVCTPRP  0.479
9. RRIRDRPPRLPRPRPRPACSPRP  0.386
10. RRIRARPPRLPRPRPRPGEHPRP  0.351
11. RRIRKRPPRLPRPRPRPRWTPRP  0.347
12. RRIRCRPPRLPRPRPRPLPQPRP  0.334
13. RRIRARPPRLPRPRPRPQLSPRP  0.329
14. RRIRTRPPRLPRPRPRPKMWPRP  0.307
15. RRIRARPPRLPRPRPRPLCCPRP  0.305
16. RRIRMRPPRLPRPRPRPGLVPRP  0.294
17. RRIRGRPPRLPRPRPRPMIFPRP  0.283
18. RRIRWRPPRLPRPRPRPDFCPRP  0.247
19. RRIRLRPPRLPRPRPRPQRLPRP  0.239
20. RRIRSRPPRLPRPRPRPRFCPRP  0.23
21. RRIRCRPPRLPRPRPRPICWPRP  0.202
22. RRIRMRPPRLPRPRPRPTQMPRP  0.195
23. RRIRKRPPRLPRPRPRPGCKPRP  0.189
24. RRIRSRPPRLPRPRPRPNRCPRP  0.173
25. RRIRFRPPRLPRPRPRPELGPRP  0.144
26. RRIRKRPPRLPRPRPRPCDPPRP  0.121
27. RRIRIRPPRLPRPRPRPLPDPRP  0.0943
28. RRIRKRPPRLPRPRPRPIKPPRP  0.0885
29. RRIRERPPRLPRPRPRPRDPPRP  0.0576
30. RRIRHRPPRLPRPRPRPACQPRP  0.0463
31. RRIRGRPPRLPRPRPRPEKEPRP  0.0374
32. RRIRERPPRLPRPRPRPAMTPRP  0.0328
33. RRIRHRPPRLPRPRPRPHAQPRP  0.0272
34. RRIRTRPPRLPRPRPRPEFAPRP  0.0178
35. RRIRWRPPRLPRPRPRPEYHPRP  0.0167
36. RRIRHRPPRLPRPRPRPETSPRP  0.0165
37. RRIRIRPPRLPRPRPRPYRLPRP  0.00643
38. RRIRSRPPRLPRPRPRPAYEPRP  0.00308
39. RRIRQRPPRLPRPRPRPLASPRP  0.00224
40. RRIRNRPPRLPRPRPRPWLYPRP  -0.00103
41. RRIRKRPPRLPRPRPRPDYVPRP  -0.0105
42. RRIRFRPPRLPRPRPRPWKLPRP  -0.0164
43. RRIRQRPPRLPRPRPRPIYRPRP  -0.0223
44. RRIRSRPPRLPRPRPRPWSGPRP  -0.0339
45. RRIRNRPPRLPRPRPRPGDHPRP  -0.0463
46. RRIRYRPPRLPRPRPRPQFMPRP  -0.074
47. RRIRKRPPRLPRPRPRPMNMPRP  -0.0791
48. RRIRARPPRLPRPRPRPFTTPRP  -0.0831
49. RRIRGRPPRLPRPRPRPHFQPRP  -0.099
50. RRIRSRPPRLPRPRPRPVKLPRP  -0.104
51. RRIRQRPPRLPRPRPRPRCEPRP  -0.128
52. RRIRERPPRLPRPRPRPPFHPRP  -0.139
53. RRIRWRPPRLPRPRPRPWTMPRP  -0.146
54. RRIRFRPPRLPRPRPRPQVVPRP  -0.152
55. RRIRERPPRLPRPRPRPKIYPRP  -0.165
56. RRIRGRPPRLPRPRPRPSTYPRP  -0.189
57. RRIRSRPPRLPRPRPRPSIMPRP  -0.196
58. RRIRTRPPRLPRPRPRPFPGPRP  -0.21
59. RRIRERPPRLPRPRPRPQYIPRP  -0.219
60. RRIRKRPPRLPRPRPRPLHFPRP  -0.258
61. RRIRNRPPRLPRPRPRPKKHPRP  -0.315
62. RRIRTRPPRLPRPRPRPSCCPRP  -0.341
63. RRIRIRPPRLPRPRPRPAYVPRP  -0.354
64. RRIRLRPPRLPRPRPRPRYCPRP  -0.357
65. RRIRERPPRLPRPRPRPYRPPRP  -0.41
66. RRIRCRPPRLPRPRPRPFLMPRP  -0.422
67. RRIRFRPPRLPRPRPRPLNFPRP  -0.452
68. RRIRCRPPRLPRPRPRPWFLPRP  -0.479
69. RRIRSRPPRLPRPRPRPQFNPRP  -0.498
70. RRIRPRPPRLPRPRPRPYGTPRP  -0.732
71. RRIRFRPPRLPRPRPRPRYSPRP  -0.736
72. RRIRCRPPRLPRPRPRPFLCPRP  -0.786
73. RRIRPRPPRLPRPRPRPHYKPRP  -0.874
74. RRIRYRPPRLPRPRPRPNYYPRP  -1.16
75. RRIRFRPPRLPRPRPRPYYAPRP  -1.21
